From article doi:10.1101/2020.01.09.899195 (bioRxiv, 2020)

T1: MinD(R3E) (Escherichia coli, UniProt P0AEZ3 1-270, R3E)
T1 sequence (looked up): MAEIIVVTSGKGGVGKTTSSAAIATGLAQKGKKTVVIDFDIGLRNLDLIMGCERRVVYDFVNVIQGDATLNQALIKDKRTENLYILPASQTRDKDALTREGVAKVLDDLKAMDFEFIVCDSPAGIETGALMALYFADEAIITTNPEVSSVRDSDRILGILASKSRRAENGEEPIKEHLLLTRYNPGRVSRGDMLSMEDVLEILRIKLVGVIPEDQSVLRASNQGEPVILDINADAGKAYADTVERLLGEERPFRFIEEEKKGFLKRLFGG

B1: ClpP (enzyme)
chain: not shown
B2: MinC (natural protein, Escherichia coli, UniProt P18196 1-231, looked up)
chain: MSNTPIELKGSSFTLSVVHLHEAEPKVIHQALEDKIAQAPAFLKHAPVVLNVSALEDPVNWSAMHKAVSATGLRVIGVSGCKDAQLKAEIEKMGLPILTEGKEKAPRPAPTPQAPAQNTTPVTKTRLIDTPVRSGQRIYAPQCDLIVTSHVSAGAELIADGNIHVYGMMRGRALAGASGDRETQIFCTNLMAELVSIAGEYWLSDQIPAEFYGKAARLQLVENALTVQPLN

Key:
ClpX = ClpX (Escherichia coli, UniProt P0A6H1 1-424); experiment: negative-stain transmission electron microscopy
MinD(R3E) = target: T1, MinD(R3E); experiment: 90° light scatter

Binder | binding result (ClpX) | binding result (MinD(R3E))
B1 | binds | 
B2 |  | binds
